# Reference: the nanobody polyreactivity screen of Harvey et al. (2022)
# Test: yeast display, Sf9 membrane polyspecificity reagent, FACS + sequencing; frameworks hold sequencing errors
# Outline: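 A synthetic nanobody library was expressed on Saccharomyces cerevisiae BJ5465 by galactose induction for 36–48 hours. The library was stained for 1 hour at 4 °C with 10% biotinylated, detergent-solubilized Sf9 membrane reagent and enriched with streptavidin microbeads before FACS. Low and high (top ~1%) gates were set on anti-HA fluorescence for expression and streptavidin fluorescence for reagent binding, and each polyreactivity label reflects the gate of origin.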
row,Sequence,polyreactivity (PSR sort gate)
1,QVQLVESGGGLVQAGGSLRLSCAASGNIFYGYAMGWYRQAPGKERELVAAISGSSTYYADSVKGRFTISRDNAKNTVYLEMNSLKPEDTAVYYCAVPQYLYLQAGHGYRYYYWGQGTQVTVSS,high polyreactivity
2,QVQLVESGGGLVQAGGSLRLSCAASGNIFYLYAMGWYRQAPGKEREFSTSYADSVKGRFTISRDNAKNTVYLQMNSLKPEDTAVYYCAAYKSRGPYYYLFDYWGQGTQVTVSS,low polyreactivity
3,QVQLVESGGGLVQAGGSLRLSCAASGNIFYPYAMGWYRQAPGKERELVAAISWSDGSTYYADSVKGRFTISRDNAKNTVYLQMNILKPEDTAVYYCAAEAYISNYYGRDYWGQGTQVTVSS,high polyreactivity
4,QVQLVESGGGLVQAGGSLRLSCAASGNIFYRNAIGWYRQAPGKERELVAAIRGGGSTNYADSVKGRFTISRDNAKNTVYLQMNSLKPEDTAVYYCNTVRSPPGHDYWGQGTQVTVSS,low polyreactivity
5,QVQLVESGGGLVQAGGSLRLSCAASGNIFYTYAMGWYRPAPGKERELVAAITWSGGSTYYADSVKGRFTISRDKAKKTVYLQMNSLKPEDTAVYYCAADSLGYYYSGGYYSIYDHWGQGTQVTVSS,high polyreactivity
6,QVQLVESGGGLVQAGGSLRLSCAASGNIFYTYAMGWYRQAPGNERELVAGISSDASTTYADSVKGRFTISRDNAKNTVYLPMKSLNPEDTAVYYCPADITGIVWYVYYYWGQGTQVTVSS,low polyreactivity
7,QVQLVESGGGLVQAGGSLRLSCAASGNIFYVYVMGWYRQAPGKERELVASITSGASTYYADSVKGRFTISRDNAKNTVYLQMNSLKPEDTAVYYCAAEALGGAGDYSTLYIYDYWGQGTQVTVSS,low polyreactivity
8,QVQLVESGGGLVQAGGSLRLSCAASGNIFYWYAMGWYRQAPGKEREFVAAITRSGGSTSYADSVKGRFTISRDNAKNTVYLQMNSLKPEDTAVYYCNATHWVHFQEFYSWGPGTQVTVSS,low polyreactivity
9,QVQLVESGGGLVQAGGSLRLSCAASGNIFYYNAMGWYRQAPGKETELVADITWSGGSTYYADSVKGRFTISRDNAKNTVDLQMNSLKPEDTAVYYCADETFGYHRGRIADDYEYWGQGTQVTVSS,low polyreactivity
10,QVQLVESGGGLVQAGGSLRLSCAASGNIISNNAMGWYRQAPGKERELVAAIDWSGGRTYYADSVKGRFTISRDNAKNNVYIQMNSLKPEDTAVYYCAAEIPFTYRGVFYEYYYWGQGTQVTLSS,high polyreactivity
11,QVQLVESGGGLVQAGGSLRLSCAASGNILATNCMGWYRQAPGMERELVAAITFSGDTTYYADSVKGRFTISRDNAKNTVYLQMNSLKPEDTAVYYCNAVSFIVNGGYDGDYWGQGTQVTVSS,low polyreactivity
12,QVQLVESGGGLVQAGGSLRLSCAASGNILRGYAMGWYRQAPGKERELVAAIDTRGGRTNYADSVKGRFTISRDNAKNTVYLQMNSLKPEDTAVYYCNALGYYSFGHEYWGQGTQVTVSS,low polyreactivity
13,QVQLVESGGGLVQAGGSLRLSCAASGNILSPYTMGWYRQAPGKERELVAGISRSGGTTYYADSVKGRFTLSRDNAKTTVYLQINSLKTEDTAVYYCASGLIYGYSGYDSWGQGTQVTVSS,low polyreactivity
14,QVQLVESGGGLVQAGGSLRLSCAASGNILSVYTMGWYRQAPGKERELVATITYSGDRTYADSVKGRFTISRDNAKKTVYLQMNSLKPEDTAVYYCNAVYYREGMDYWGQGTQVTVSS,low polyreactivity
15,QVQLVESGGGLVQAGGSLRLSCAASGNILTTYAMGWYRQAPGKERELVAAIRWSDGSTYYADSVKGRFTISRDNAKNTVYLQMNSLKPEDTAVYYCAADYHYPTWQGGYHYGYWGQGTQVTVSS,high polyreactivity
16,QVQLVESGGGLVQAGGSLRLSCAASGNILVENAMGWYRQAPGKERELVAVSTSGTSTYADSVKGRFTISRDNAKNSVSFQMNSLKPEDTAVYYCNARRINTLYDSWGQGTLVTVSS,low polyreactivity
17,QVQLVESGGGLVQAGGSLRLSCAASGNIYDVYAMGWYRQAPGKERELVADIDRGGTTYADSVKGRFTISRDNAKNTVYLQMNSLKPEATAVYYCAADYVQGFGFYYQWHSDYWGQGTQVTVSS,low polyreactivity
18,QVQLVESGGGLVQAGGSLRLSCAASGNNFGVYAMGWYRQAPGTERELVAAIRYSTVSTYYADSVKGRFTISRDNAKNTVYLQMNSLKPEDTSVYYCAAQRRRYLPGHYYYWGQGTQVTVSS,high polyreactivity
19,QVQLVESGGGLVQAGGSLRLSCAASGNNFRYNAMVWYRQAPGKERELVAAISSVGTTNYADSVKGRFTISRDNAKNTVYLQMNSLKPEDTAVYYCAAVDYQGGYWYDYWGQGTQVTVSS,low polyreactivity
20,QVQLVESGGGLVQAGGSLRLSCAASGNNIVINAMGWYRPAPGKERELVAAINWTGGNTYYADSVKGRFTISRDNAKNTVYLQMNSLKPEDSAVYYCAADRRWFVWGLGYWGQGTQVTVSS,low polyreactivity
21,QVQLVESGGGLVQAGGSLRLSCAASGNTCTPNGMGWYRQAPGKEREFVAAITWSGGRTHYADSVKGRFTISRDNAKNTVYLQMNSLKPEDTAVYYCAARRSHFEYGTYSGYDYYWGQGTQVTVSS,high polyreactivity
22,QVQLVESGGGLVQAGGSLRLSCAASGNTCYQYAMGWYRQAPGKERELVAAISSSGGSTYYADSVKGRFTISRDNAQNTVYLQMNSLKTEDTAVYYCATDKWYGYYYWGQGTQVTVSS,low polyreactivity

row,Sequence,polyreactivity (PSR sort gate)
1,QVQLVESGGGLVQAGGSLRLSCAASGNTFAENDMGWYRQAPGKERELVAAITYSGGDTYYADSVKGRFTISRDNAKNTVYLQMNSLKPEDTAVYYCAADNGSKEFDYWGQGTQVTVSS,low polyreactivity
2,QVQLVESGGGLVQAGGSLRLSCAASGNTFAFNAMVWYRQAPGKEREFVAAISYSGVSTYYADSEKGRFTISRDNAKNTVYLQMNSLKPEDTAVYYCAARYGWYKYWYDYWGQGTQGTVSS,high polyreactivity
3,QVQLVESGGGLVQAGGSLRLSCAASGNTFANYAMGWYRQAPGKERELVAAITSNGGSTYYADSVKGRFTISRDNAKNTVYLQMNSLKPEDTAVYYCAAPGAISTRSRYGPGYTYDYWGQVTQVTVSS,low polyreactivity
4,QVQLVESGGGLVQAGGSLRLSCAASGNTFAPNAMGWYRQAPGKERELVAVISWSSGRTYYADSVKGRFTISRDNAKNTVYLQMNSLKPEDTAVYYCAARFGSGFNYWGQGTQVTVSS,high polyreactivity
5,QVQLVESGGGLVQAGGSLRLSCAASGNTFDVYAMGWYRQAPGKEREFVARISGRVGSTYYADSVKGRFTISRDNAKYTVYLQMNSLKPEDTAVYYCNRRYQSRNMGYWGQGTQVTVSS,high polyreactivity
6,QVQLVESGGGLVQAGGSLRLSCAASGNTFEYYVMGWYRQAPGKERELVAAITWSTGSTYYADSVKGRFTISRDNAKNTVYLQMNSLKPEDTAVYYCAALYYFIFGRPTRFDYWGLGTQVTVSS,low polyreactivity
7,QVQLVESGGGLVQAGGSLRLSCAASGNTFEYYVMGWYRQAPGKERELVAAITWSTGSTYYADSVKGRFTISRDNAKNTVYLQMNSLKPEDTAVYYCNAAYVYYYPHYRYAPTAVDYDYWGQGTQVTVSS,low polyreactivity
8,QVQLVESGGGLVQAGGSLRLSCAASGNTFFVYAMGWDRQAPGKERELVATITLNGGSTYYADSVKGRFTISRDNAKNTVYLQMNSLKPEDTAVYYCAVEPDVYPSWYYYVDYDYWGQGTQVTVSS,low polyreactivity
9,QVQLVESGGGLVQAGGSLRLSCAASGNTFFVYAMGWYRQAPGKERELVADINWSTGSTYYADFVKGRFTLSRDNAKNTVYLQMNSLKPEDTAVYYCAAEAYYYVIFHGSWYTDDYWGQGTQVTVSS,low polyreactivity
10,QVQLVESGGGLVQAGGSLRLSCAASGNTFGDYAMGWYRQAPGKERELVAAISRSGGSTSYADSVKGRFTISRDNAKNTVYLQMNSLKPEDTAVYYCAAYWQRFGYDYWGQGTQVTVSS,low polyreactivity
11,QVQLVESGGGLVQAGGSLRLSCAASGNTFGIYAMGWYRQAPGKERELVAAISSGTSTNYADSVKGRFTISRDNAKNTVYLQMNSLKPEDTAVYYCNADDQYQDVREDYWGQGTQVTVSS,low polyreactivity
12,QVQLVESGGGLVQAGGSLRLSCAASGNTFGRYAMGWSRQAPGKERELVASIRGSSVRTFYADSVKGRFTISRDNAKNTVYLQMNSLKPEDTAVYYCAKRGYAYPSSYDSWGQGTQVTVSS,high polyreactivity
13,QVQLVESGGGLVQAGGSLRLSCAASGNTFGRYAMGWYRQAPGKERELVAAITKRGGTTYYADSVKGRFTISRDYAKNTVYLQMNSLKPEDTAVYDCAAKRSVLRTADYDYWGQGTQVTVSS,high polyreactivity
14,QVQLVESGGGLVQAGGSLRLSCAASGNTFGYNAMGWYRQAPGKERELVAAISWRGGRTYYADSVKGRFTISRDHAKNTVYLQMNILKTEDTAVYYCAARRHSTRLRLTYDYWGQGTQVTVSW,high polyreactivity
15,QVQLVESGGGLVQAGGSLRLSCAASGNTFGYNAMGWYRQAPGKERELVASITWSGGSTYYADSVKGRFTISRDNAKNTVYLQMNSLKPEDTAVYYCNADVRYGRDHWGQGTQVTVSS,low polyreactivity
16,QVQLVESGGGLVQAGGSLRLSCAASGNTFIPNAMGWSRQAPGKETELVAAIRASGGSTYYADSVKGRFTISRDNAKNTVYLQMNSLKPEDTAVYYCNADIWYKTYDYWGQGTQVTVSS,low polyreactivity
17,QVQLVESGGGLVQAGGSLRLSCAASGNTFIRNVMGWYRQAPGKERELVAGIRTGGSTFYADSVKGRFTISRDNAKNTVYLQMNSLKPEDTAVYYCNADVGDEGNLPYVIRPMDYWGQGTQVTVSS,low polyreactivity
18,QVQLVESGGGLVQAGGSLRLSCAASGNTFKRYAMGRYRQAPGKERELVAAITWRGARTYYADSVKGRLTISRDNAKNTFYLQMNSLKPEDTAVYYCAADGYSGSGPYDYWGQGTQVTVSS,high polyreactivity
19,QVQLVESGGGLVQAGGSLRLSCAASGNTFLAYVMGWYRQAPGKEREFVAAISRRDGRTYYADSVKGRFTISRDNAKNTVYLQMNSLKPEDTAVYYCNAQRHFWHLYAPSSFDYWGQGTQVTVSS,low polyreactivity
20,QVQLVESGGGLVQAGGSLRLSCAASGNTFNIYAMGWYRQAPGKETEFVAAITVSDTSTYYADSVKGRFTISRDSAKNTVYLQMKSLKPEDTAVYYCNADWWGTYDYYYWGQGTHVTVSS,low polyreactivity
21,QVQLVESGGGLVQAGGSLRLSCAASGNTFNNNAMGWYRQAPGKERELVAITGDGGSTYYADSVKGRFTISRDNAKNTVYLQMNSLKPEDTAVYYCAADYLYRYQTMGYWGQGTQVTVSS,low polyreactivity
